The values below come from patent publication US20230020729A1 (Memorial Sloan Kettering, published 2023).

The labels stand for the following.
T1: human Fc Receptor-Like 5 (FcRL5), full length, expressed on cells (human, UniProt Q96RD9 16-977)
T1 construct: also called CD307e; IRTA2
T1 sequence: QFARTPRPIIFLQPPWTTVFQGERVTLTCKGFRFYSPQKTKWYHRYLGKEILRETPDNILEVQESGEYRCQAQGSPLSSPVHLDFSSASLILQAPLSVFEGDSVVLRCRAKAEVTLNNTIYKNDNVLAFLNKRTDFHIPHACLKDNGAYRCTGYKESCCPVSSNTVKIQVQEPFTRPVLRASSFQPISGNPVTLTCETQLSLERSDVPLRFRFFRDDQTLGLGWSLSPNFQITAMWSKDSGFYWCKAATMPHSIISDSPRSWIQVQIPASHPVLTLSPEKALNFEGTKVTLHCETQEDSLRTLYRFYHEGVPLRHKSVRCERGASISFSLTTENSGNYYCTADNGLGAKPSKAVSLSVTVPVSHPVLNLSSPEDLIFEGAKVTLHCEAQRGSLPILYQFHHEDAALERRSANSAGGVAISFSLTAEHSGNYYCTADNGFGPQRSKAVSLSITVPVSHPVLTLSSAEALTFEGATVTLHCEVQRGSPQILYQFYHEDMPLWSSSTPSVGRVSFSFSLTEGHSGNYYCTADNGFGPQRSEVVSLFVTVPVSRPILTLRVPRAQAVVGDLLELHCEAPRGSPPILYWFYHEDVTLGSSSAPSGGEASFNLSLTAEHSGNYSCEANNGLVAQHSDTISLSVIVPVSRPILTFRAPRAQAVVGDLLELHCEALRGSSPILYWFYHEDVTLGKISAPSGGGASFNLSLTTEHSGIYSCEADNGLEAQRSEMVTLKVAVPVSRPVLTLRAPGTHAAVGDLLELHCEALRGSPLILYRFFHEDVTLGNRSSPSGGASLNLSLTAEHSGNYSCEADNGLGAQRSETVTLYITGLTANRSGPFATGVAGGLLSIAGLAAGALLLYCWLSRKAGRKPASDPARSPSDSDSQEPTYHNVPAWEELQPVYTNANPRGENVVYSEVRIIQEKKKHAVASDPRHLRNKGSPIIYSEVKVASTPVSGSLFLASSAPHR

B1: ET200-099 scFv (scFv)
scFv: QSVLTQPPSASGTPGQRVTISCSGSSSNIGSNTVNWYQQLPGTAPKLLIYSNDQRPSGVPDRFSGSKSGTSASLAISGLQSEDEADYYCASWDDSLNGRYVFGTGTKVTVLGSRGGGGSGGGGSGGGGSLEMAQVQLVQSGAEVRKPGASVKVSCKTSGYTFSWYAIHWVRQAPGQRLEWMGWINAGNGNTKYSQKFQGRVSLTRDTSASTAYMELSSLRSDDTAVYYCARPDNYGSGGDVFDIWGQGTMVTVSS
notes: VL-linker-VH; screened as scFv phage clone
B2: ET200-107 scFv (scFv)
scFv: QSVVTQPPSVSAAPGEKVTISCSGSNFNVGNNDVSWYQQLPGAAPKLLIYDNNKRPSGIPDRFSGSKSGTSATLDITGLHSDDEADYYCGTWDSSLNTGGVFGTGTKVTVLGSRGGGGSGGGGSGGGGSLEMAEVQLVQSGAEVKKPGASVKVSCKASGYTFTSYTISWVRQAPGQGLEWMGWISTYNGLTNYAQNLQGRVTMTTDTFTTTAYMELRSLRSDDTAVYYCVREGSPDYGDFASFDYWGQGTLVTVSS
notes: as for B1
B3: ET200-106 scFv (scFv)
scFv: SYELTQPPAASGTPGQRVTISCSGGVSNIGSGALNWYQQLPGTAPKLLIYSYNQRPSGVSDRFSGSRSATSASLAISGLQSEDEADYYCATWDDSVNGWVFGGGTKLTVLGSRGGGGSGGGGSGGGGSLEMAEVQLVESGAEVKKPGDSVKVSCKPSGYNFLNYGINWVRQAPGQGLEWMGWISTYTGNTNYAQKLQGRVTFTTDTSTSTAYMEMRSLRSDDTAVYYCARQQGGGWYDVWGQGTLVTVSS
notes: as for B1
B4: ET200-045 scFv (scFv)
scFv: QPVLTQPPSVSVAPGKTATITCGGNNIGSESVHWYHQKPGQAPVLVIYDDAGRPSGIPERFTGSNSGNTATLTISRVEAGDEADYYCQVWDRNSAQFVFGPGTKVTVLGSRGGGGSGGGGSGGGGSLEMAEVQLVQSGAEVKKPGASVKVSCKASGYTFTSYGISWVRQAPGQGLEWMGWISAYNGNTNYAQKLQGRVTMTTDTSTSTAYMELRSLRSDDTAVYYCARGVHLDWWGQGTLVTVSS
notes: as for B1
B5: ET200-103 scFv (scFv)
scFv: QAVLTQPHSVSESPGKTVTISCTRSSGSIASNYVQWYQQRPGSAPTTVIYEDNQRPSGVPDRFSGSIDSSSNSASLTISGLKTEDEADYYCQSYDSTITVFGGGTKLTVLGSRGGGGSGGGGSGGGGSLEMAQVQLVQSGAEVKKPGSSVKVSCKASGGTFSSYAISWVRQAPGQGLEWMGGIIPIFGTANYAQKFQGRVTITADESTSTAYMELSSLRSEDTAVYYCAGEGYYDSSGYSNGDAFDIWGQGTMVTVSS
notes: as for B1
B6: ET200-069 scFv (scFv)
scFv: QSVVTQPPSASGTPGQRVTISCSGSSSNIGSNYVYWYQQLPGTAPKLLIYSNNQRPSGVPDRFSGSKSGTSASLAISGLRSEDEADYYCAAWDDSLSGYVFGTGTKLTVLGSRGGGGSGGGGSGGGGSLEMAQVQLQQWGAGLLKPSETLSLTCAVYGGSFSGYYWSWIRQPPGKGLEWIGEINHSGSTNYNPSLKSRVTISVDTSKNQFSLKLSSVTAADTAVYYCARLYEGGYHGWGSWLSSDSWGQGTLVTVSS
notes: VL-linker-VH; screened as scFv phage clone; also called ET200-69
B7: ET200-081 scFv (scFv)
scFv: QSALTQPASVSGSPGQSITISCTGTSSDIGGYNYVSWYQQHPGKAPKLMIYDVSNRPSGVSNRFSGSKSGNTASLTISGLQAEDEADYYCISYTRTWNPYVFGSGTKVTVLGSRGGGGSGGGGSGGGGSLEMAEVQLVQSGGGVVQPGGSLRLSCAASGFTFDDYAMHWVRQAPGKGLEWVSLISGDGGSTYYADSVKGRFTISRDNSKNSLYLQMNSLRTEDTALYYCAKDRAAAGYYYYGMDVWGQGTTVTVSS
notes: as for B1
B8: ET200-101 scFv (scFv)
scFv: QAVLTQPPSASGAPGQRVTVSCSGSNSNIGSNYVNWYQQFPGTAPKLLMYSSSQRPSGVPDRFSGSKSGTSASLAISGLHSEDEADYYCATWDDSLNAWVFGGGTKLTVLGSRGGGGSGGGGSGGGGSLEMAEVQLVQSGAEVRKPGASVKVSCKTSGYTFTWYAIHWVRQAPGQRLEWMGWINAGSGNTKYSQKFQGRVTLTRDTSASTAYMELSSLRSDDTAVYYCARPNNYGSGGDVFDIWGQGTMVTVSS
notes: as for B1
B9: ET200-097 scFv (scFv)
scFv: LPVLTQPPSVSVSPGQTAIITCSGDKLGEKYVSWYQQKPGQSPVLVIDQDTRRPSGIPERFSGSNSGTTATLTISGTQAMDEADYYCQAWDRGVVFGGGTKLTVLGSRGGGGSGGGGSGGGGSLEMAEVQLVESGGDLVQPGRSLRLSCAASGFTFNDYAMHWVRQAPGKGLEWVSGISWSGNNIGYADSVKGRFTISRDNAKNSLYLQMNSLRAEDTALYYCAKDSIRYGITWGGFDYWGQGTLVTVSS
notes: as for B1
B10: ET200-098 scFv (scFv)
scFv: QPVLTQPPSVSKGLRQTATLTCTGNSNNVGNLGVAWLQQHQGHPPKLLSYRNNNRPSGISERLSASRSGNTASLTITGLQPEDEADYYCSAWDSSLSAWVFGGGTKLTVLGSRGGGGSGGGGSGGGGSLEMAEVQLVESGGVVVQPGGSLRLSCAASGFTFDDYAMHWVRQAPGKGLEWVSLINWDGGSTYYADSVKGRFTISRDNSKNSLYLQMNSLRAEDTALYYCAKGMGLRAFDYWGQGTLVTVSS
notes: as for B1
B11: ET200-102 scFv (scFv)
scFv: QSVVTQPPSVSAAPGQKVTISCSGSSSNIGNNYVSWYQQLPGTAPKLLIYDNNKRPSGIPDRFSGSKSGTSATLGITGLQTGDEADYYCGTWDSSLSAYVFGTGTKVTVLGSRGGGGSGGGGSGGGGSLEMAQVQLVQSGAEVKKPGASVKVSCKASGYTFTNYALHWVRQAPGQGLEWMAWINGGNGNTKYSQNFQGRVTITRDTSASTAYMELSSLRSEDTAVYYCAKPEETAGTIHFDYWGQGTPVTVSS
notes: as for B1
B12: ET200-100 scFv (scFv)
scFv: NFMLTQPHSVSESPGKTVTISCTRSSGSIASNFVQWYQQRPGSAPTPMIYEDNNRPPGVPDRFSASVDSSSNSASLTISGLKTEDEADYYCQSYDTSNVVFGGGTKLTVLGSRGGGGSGGGGSGGGGSLEMAEVQLVESGGGLVQPGGSLRLSCAASGFTFSSYEMNWVRQAPGKGLEWVSYISSSGSTIYYADSVKGRFTISRDNAKNSLYLQMNSLRAEDTAVYYCARWDYGMDVWGQGTTVTVSS
notes: as for B1
B13: ET200-104 scFv (scFv)
scFv: NFMLTQPHSVSESPGKTVTISCTRSSGSIASNYVQWYQQRPGSAPTTVIYEDNQRPSGVPDRFSGSIDSSSNSASLTISGLKTEDEADYYCQSYDSSNVVFGGGTKVTVLGSRGGGGSGGGGSGGGGSLEMAEVQLVESGGGLVQPGGSLRLSCAASGFTFSSYEMNWVRQAPGKGLEWVSYISSSGSTIYYADSVKGRFTISRDNAKNSLYLQMNSLRAEDTAVYYCARWDYGMDVWGQGTTVTVSS
notes: as for B1
B14: ET200-105 scFv (scFv)
scFv: SYVLTQPPSVSVSPGQTASITCSGDRLTNKYVSWYQQKPGQSPVLVIYEDAKRPSGIPARFSGSNSGNTATLTISGTQAMDESEYYCQAWDSSVVVFGGGTKLTVLGSRGGGGSGGGGSGGGGSLEMAEVQLVESGGGLVQPGRSLRLSCAASGFTFDDYAMHWVRQAPGKGLEWVSGISWNSGSIGYADSVKGRFTISRDNAKNSLYLQMNSLRDEDTALYYCAKDRGGGVIVKDAFDIWGQGTMVTVSS
notes: as for B1
B15: ET200-079 scFv (scFv)
scFv: SYELTQPPSASGTPGQRVTISCSGSSSNIGSNYVYWYQQLPGTAPKLFIYRNNQRPSGVPDRFSGSKSGTSASLAISGLRSEDEADYYCAAWDDSLSGYLFGTGTKVTVLGSRGGGGSGGGGSGGGGSLEMAEVQLVESGGGLVQPGRSLRLSCAASGFTFDDYAMHWVRQAPGKGLEWVSGISWNSGSIGYADSVKGRFTISRDNAKNSLYLQMNSLRAEDTALYYCANGDSNYYYGMDVWGQGTTVTVSS
notes: as for B1
B16: ET200-007 scFv (scFv)
scFv: SYVLTQPLSVSVAPGKTARITCGGNNIGSKTVHWYQQKPGQAPVLVIYYDSDRPSGIPERFSGSNSGNTATLTISRVEAGDEADYYCQVWDSSSDHRVFGGGTKLTVLGSRGGGGSGGGGSGGGGSLEMAQVQLQESGPGLVKPSETLSLTCNVSGYSISSGYFWGWIRQPPGKGLEWIGSIYHSRSTYYNPSLKSRVTISVDTSKNQFSLKLNSVTAADTAVYYCARGYGYFDYWGQGTLVTVSS
notes: as for B1

This experiment has as its target T1, human Fc Receptor-Like 5 (FcRL5), full …. As to the kind of experiment: scFv phage: ELISA on His-tag FcRL5, flow cytometry on FcRL5-overexpressing 3T3 and Raji cells. (ELISA stands for enzyme-linked immunosorbent assay.)
Take B1: the binding result is “binds”.
As to B2, the binding result was “binds”.
With B3 the entry was “binds”.
Consider B4, for which the binding result was “binds”.
With B5, the binding result is “binds”.
Consider B6, for which the binding result is “binds”.
Turning to B7, the binding result is “binds”.
With B8, the binding result is “binds”.
For the molecule B9, the binding result is listed as “binds”.
For B10, the binding result is “binds”.
With B11, the binding result is given as “binds”.
As for B12, the binding result is “binds”.
As to B13, the binding result was “binds”.
Take B14: the binding result is given as “binds”.
With B15, the binding result is “binds”.
On to B16, for which the binding result is listed as “binds”.
